Results: patent publication US20250387450A1 (AIKIUM, published 2025)
Numbering of substitutions follows the chain as printed.

B1: engineered scaffold protein S058 (designed binder)
chain: GSHSMRYNYTSVSRPGRGEPRFISEGYVDDTQFVRFDSDAASPREEPRAPWIEQEGPEYWDRNTQIYKAQAQTDRESLRNLRGYYNQSEAGSHTLQSMYGCDVGPDGRLLRGHDQYYYDGKDYISLNEDLRSWTAADTAAQITQRKWEAAREAEQRRAYLEGECVEWLRRYLENGKDKLERADGGSHHHHHHLE
B2: engineered scaffold protein S065 (designed binder)
chain: B1 chain with N8F, E25V, Y59A, Y117A, Y123S, S125A, K146Y, W167H, Y171V
B3: engineered scaffold protein S078 (designed binder)
chain: GDTRPRFLWQLKFECHFFNGTERVRLLERCIYNQEESVRFDSDVGEYRAVTELGRPDAEYWNSQKDLLEQRRAAVDTYCRHNYGVGESFTVQRRSGGGIKEEHVIIQAEFYLNPDQSGEFMFDFDGDEIFHVDMAKKETVWRLEEFGRFASFEAQGALANIAVDKANLEIMTKRSNYTGGSHHHHHHLE
B4: S180 (designed binder)
single chain: MKEEHVIIQAEFYLNPDQSGEFMFDFDGDEIFHVDMAKKETVWRLEEFGRFASFEAQGALANIAVDKANLEIMTKRSNYTPITNTRPRFLWQPKRECHFFNGTERVRFLDRYFYNQEESVRFDSDVGEFRAVTELGRPDAEYWNSQKDILEQARAAVDTYCRHNYGVVESFTVQRRVQGGSHHHHHHLE
notes: also called engineered scaffold protein S180
B5: engineered scaffold protein S077 (designed binder)
chain: KPVSKMRMATPLLMQALPMASGGGGSGGGGDTRPRFLWQLKFECHFFNGTERVRLLERCIYNQEESVRFDSDVGEYRAVTELGRPDAEYWNSQKDLLEQRRAAVDTYCRHNYGVGESFTVQRRSGGGIKEEHVIIQAEFYLNPDQSGEFMFDFDGDEIFHVDMAKKETVWRLEEFGRFASFEAQGALANIAVDKANLEIMTKRSNYTGGSHHHHHHLE
B6: engineered scaffold protein S068 (designed binder)
chain: GDTRPRFLWQLKFECHFFNGTERVRLLERCIYNQEESVRFDSDVGEYRAVTELGRPDAEYWNSQKDLLEQRRAAVDTYCRHNYGVGESFTVQRRVEPKVTVYPSKTQPLQHHNLLVCSVSGFYPGSIEVRWFRNGQEEKAGVVSTGLIQNGDWTFQTLVMLETVPRSGEVYTCQVEHPSVTSPLTVEWRASGGGGSGGGGSGGGGIKEEHVIIQAEFYLNPDQSGEFMFDFDGDEIFHVDMAKKETVWRLEEFGRFASFEAQGALANIAVDKANLEIMTKRSNYTPITNVPPEVTVLTNSPVELREPNVLICFIDKFTPPVVNVTWLRNGKPVTTGVSETVFLPREDHLFRKFHYLPFLPSTEDVYDCRVEHWGLDEPLLKHWEFDAPSGGSHHHHHHLE
B7: engineered scaffold protein S098 (designed binder)
chain: PENYLFQGRQECNGTQFLERYIYNREEFVRFDEFRAVGRPDEEYWNSQKDILEEERAVPDRMCRHNYELGGPMTLQRRVQPRVNIKADHVSTYAAFVQRPFMFEFDEDEMFYVDLHLEEFGQAFSFEAQGGLANIAILNNNLNTRSNHTQATNDPPHHHHHHLE
B8: S189 (designed binder)
single chain: MGIKEEHVINQAEYCLNPDQSGEFKFDFDGDEIFHVDMAKKETVWRLEEFGRFASFEAQGALAHIAVDCANLEIMTKRSNYTPMGDTRPRFLWQLKYECHFFNGTERVRLNERCIYNQEESVRFDSDVGEYRAVTELGRPDAEQWNSQKDHLEQRRAAVDTKCRHNYGVGESFTVQGGSHHHHHH
notes: also called engineered scaffold protein S189
B9: engineered scaffold protein S193 (designed binder)
chain: MGSKARMATGALAQAGGSGGSMIKEEHVINQAEYYLNPDQSGEFKFDFDGDEIFHVDMAKKETVWRLEEFGRFASFEAQGALAHIAVDKANLEIMTKRSNYTPMGDTRPRFLWQLKYECHFFNGTERVRLNERCIYNQEESVRFDSDVGEYRAVTELGRPDAEQWNSQKDHLEQRRAAVDTKCRHNYGVGESFTVQGGSHHHHHH
B10: engineered scaffold protein S143 (designed binder)
chain: MGDTRPRFLWQLKFECHFFNGTERVRLLERCIYNQEESVRFDSDVGEYRAVTELGRPDAEYWNSQKDLLEQRRAAVDTYCRHNYGVGESFTVQRRVIKEEHVIIQAEFYLNPDQSGEFMFDFDGDEIFHVDMAKKETVWRLEEFGRFASFEAQGALANIAVDKANLEIMTKRSNYTPTINGGSHHHHHH
B11: engineered scaffold protein S134 (designed binder)
chain: MVKYHHHHHHGGSENLYFQGMGDTRPRFLWQPKRECHFFNGTERVRFLDRYFYNQEESVRFDSDVGEFRAVTELGRPDAEYWNSQKDILEQARAAVDTYCRHNYGVVESFTVQRRVIKEEHVIIQAEFYLNPDQSGEFMFDFDGDEIFHVDMAKKETVWRLEEFGRFASFEAQGALANIAVDKANLEIMTKRSNYTPITN

Assays:
[1] = biological target: T1, Urotensin-2 receptor N-terminal peptide, MALTPESPSSFPGLAATGSSVPEPPGGPNATLNSSWASPTEPSSLEDLVATGTI (biotin label); assay: modified sandwich ELISA, grade by the table's key
T1 construct: also called Urotensin IIR; GPCR2 (Urotensin II)
T1 peptide: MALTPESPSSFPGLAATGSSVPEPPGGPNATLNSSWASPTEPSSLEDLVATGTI
Procedure: (§1) Binder proteins were coated on the surface of a high binding capacity 96 well plate by incubating 100 μL of protein at 5 μg/mL in a coating solution (10 mM Tris pH 8.8, 50 mM NaCl), overnight at 4 C. The next morning, the coating solution was aspirated out and wells were washed once with 300 μL ELISA wash buffer (1×PBS, 0.05% Tween-20) and solution was aspirated out. The wells were blocked with 200 μL of a blocking buffer (1×PBS, 0.05% Tween-20, 3% BSA) at room temperature for 1 hour. After one hour, the blocking solution was aspirated out and 100 μL of biotinylated polypeptide in a binding buffer (1×PBS, 0.05% Tween-20, 0.5% BSA) at various concentrations was added to the appropriate well and incubated for 20 minutes. Peptide solution was aspirated out after 20 minutes and wells were washed 5 times with 300 μL of ELISA wash buffer. To detect the biotinylated peptide, 100 μL of streptavidin-HRP (50 ng/ml) was added to each well and incubated for 1 hour. The wells were subsequently washed 5 times with 300 μL of ELISA wash buffer. 100 μL of QuantaBlu Fluorogenic Peroxidase substrate solution was added to each well, incubated for 30 minutes and reaction stopped by adding 100 μL of stop solution. Fluorescent signal from each well was measured using a Biotek Cytation5 plate reader by exciting the fluorophore at […] and measuring emission at 420 nm. Fluorescent signals were plotted as a function of polypeptide concentration.

[2] = biological target: T2, CD74 disordered region peptide (CLIP), PPKPVSKMRMATPLLMQALPMGALP (biotin label); assay: modified sandwich ELISA, fluorescence grade by the table's key
T2 construct: also called CD74 Peptide
T2 peptide: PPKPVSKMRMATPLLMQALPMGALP
Procedure: as §1

[3] = biological target: T3, TNFRSF13B disordered region peptide, LPPELRRQRSGEVENNSDNSGRYQ (biotin label); assay: modified sandwich ELISA, grade by the table's key
T3 construct: also called TNFRSF13B Peptide
T3 peptide: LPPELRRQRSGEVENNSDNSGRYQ
Procedure: as §1

[4] = biological target: T4, KAAG1 disordered region peptide, PGAAAAHLPRWPPPQLAASRREA (biotin label); assay: ELISA: scaffold coated on plate, biotinylated peptide titrated, streptavidin-HRP fluorescence
T4 construct: also called KAAG1 Peptide
T4 peptide: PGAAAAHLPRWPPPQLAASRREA
Procedure: as §1

[5] = biological target: T4, KAAG1 disordered region peptide, …; assay: modified sandwich ELISA, grade by the table's key
Procedure: as §1

[6] = biological target: T5, CYSLTR2 N-terminal disordered region peptide, MERKFMSLQPSISVSEMEPNGTFSNNNSRNCTIENFKREFFP (biotin label); assay: modified sandwich ELISA, fluorescence grade by the table's key
T5 construct: also called CysLT2; CysLT2r
T5 peptide: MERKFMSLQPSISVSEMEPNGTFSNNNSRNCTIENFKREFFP
Procedure: as §1

[7] = biological target: T6, GMERKFMSLQPSISVSEMEPNGTFSNNNSRNCTIENFKREFFP (biotinylated, position not given); assay: ELISA: scaffold coated on plate, biotinylated peptide titrated, streptavidin-HRP fluorescence
T6 construct: also called CYSLTR2 (longer peptide of the disordered region)
T6 peptide: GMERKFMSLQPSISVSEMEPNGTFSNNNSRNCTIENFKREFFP
Procedure: as §1

[8] = biological target: T7, CYSLTR2 short linear epitope peptide, SISVSEMEPNGTFSNNNSRNC (N-terminal biotin); assay: as above
T7 peptide: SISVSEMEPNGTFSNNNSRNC
Procedure: as §1

[9] = biological target: T3, TNFRSF13B disordered region peptide, …; assay: as above
Procedure: as §1

[10] = biological target: T8, KCNA6 short linear epitope peptide, QQQEQQPASGGGGQNGQQAMS (biotin label); assay: as above
T8 construct: also called KCNA6 Peptide
T8 peptide: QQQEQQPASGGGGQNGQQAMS
Procedure: as §1

[11] = biological target: T9, CD40LG short linear epitope peptide, NKEETKKENSFEMQKGDQNPQIAAH (biotin label); assay: as above
T9 construct: also called CD40LG Peptide
T9 peptide: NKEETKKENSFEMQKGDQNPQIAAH
Procedure: as §1

Binder | binding result [1] | fluorescent signal [2] | binding result [3] | binding result [5] | further results
B1 | no binding (tested: <5000 (fluorescence, key)) | > 400000 fluorescentsignal |  |  | 
B2 | no binding (tested: <5000 (fluorescence, key)) | > 400000 fluorescentsignal | no binding (tested: <5000 (fluorescence, key)) |  | binding result [4]: no binding (tested: 10000 nM)
B3 | no binding (tested: <5000 (fluorescence, key)) | > 400000 fluorescentsignal | no binding (tested: <5000 (fluorescence, key)) | no binding (tested: <5000 (fluorescence, key)) | fluorescent signal [6]: 50000 to 100000 fluorescentsignal
B4 |  |  |  |  | binding result [7]: binds; binding result [8]: binds
B5 | no binding (tested: <5000 (fluorescence, key)) | > 400000 fluorescentsignal | no binding (tested: <5000 (fluorescence, key)) | no binding (tested: <5000 (fluorescence, key)) | fluorescent signal [6]: 100000 to 250000 fluorescentsignal
B6 | no binding (tested: <5000 (fluorescence, key)) | > 400000 fluorescentsignal | no binding (tested: <5000 (fluorescence, key)) | no binding (tested: <5000 (fluorescence, key)) | 
B7 | no binding (tested: <5000 (fluorescence, key)) | > 400000 fluorescentsignal | no binding (tested: <5000 (fluorescence, key)) | no binding (tested: <5000 (fluorescence, key)) | fluorescent signal [6]: 100000 to 250000 fluorescentsignal
B8 |  |  |  |  | binding result [7]: binds; binding result [8]: binds
B9 |  |  |  |  | binding result [7]: binds; binding result [4]: no binding (tested: 10000 nM); binding result [9]: no binding (tested: 10000 nM); binding result [8]: binds; binding result [10]: no binding (tested: 10000 nM); binding result [11]: no binding (tested: 10000 nM)
B10 |  | > 400000 fluorescentsignal |  | no binding (tested: <5000 (fluorescence, key)) | 
B11 |  | 100000 to 250000 fluorescentsignal |  | no binding (tested: <5000 (fluorescence, key)) | 
